The source of these data is patent US20210063414A1, “METHODS FOR PREVENTING AND/OR TREATING BONE LOSS CONDITIONS BY MODULATING IRISIN” (Dana-Farber Cancer Institute, Inc., priority 2018, published 2021).

What all share (assay): Crosslinking/co-immunoprecipitation/mass spectrometry (TMT quantitative proteomics) to identify irisin receptors
Holding throughout (type): binding

The target in assay [1] is T1, MLO-Y4 cell surface proteins (Mus musculus, UniProt O88689).
T1 construct: endogenous in cells; host or cells: MLO-Y4
T1 sequence (O88689 30-947): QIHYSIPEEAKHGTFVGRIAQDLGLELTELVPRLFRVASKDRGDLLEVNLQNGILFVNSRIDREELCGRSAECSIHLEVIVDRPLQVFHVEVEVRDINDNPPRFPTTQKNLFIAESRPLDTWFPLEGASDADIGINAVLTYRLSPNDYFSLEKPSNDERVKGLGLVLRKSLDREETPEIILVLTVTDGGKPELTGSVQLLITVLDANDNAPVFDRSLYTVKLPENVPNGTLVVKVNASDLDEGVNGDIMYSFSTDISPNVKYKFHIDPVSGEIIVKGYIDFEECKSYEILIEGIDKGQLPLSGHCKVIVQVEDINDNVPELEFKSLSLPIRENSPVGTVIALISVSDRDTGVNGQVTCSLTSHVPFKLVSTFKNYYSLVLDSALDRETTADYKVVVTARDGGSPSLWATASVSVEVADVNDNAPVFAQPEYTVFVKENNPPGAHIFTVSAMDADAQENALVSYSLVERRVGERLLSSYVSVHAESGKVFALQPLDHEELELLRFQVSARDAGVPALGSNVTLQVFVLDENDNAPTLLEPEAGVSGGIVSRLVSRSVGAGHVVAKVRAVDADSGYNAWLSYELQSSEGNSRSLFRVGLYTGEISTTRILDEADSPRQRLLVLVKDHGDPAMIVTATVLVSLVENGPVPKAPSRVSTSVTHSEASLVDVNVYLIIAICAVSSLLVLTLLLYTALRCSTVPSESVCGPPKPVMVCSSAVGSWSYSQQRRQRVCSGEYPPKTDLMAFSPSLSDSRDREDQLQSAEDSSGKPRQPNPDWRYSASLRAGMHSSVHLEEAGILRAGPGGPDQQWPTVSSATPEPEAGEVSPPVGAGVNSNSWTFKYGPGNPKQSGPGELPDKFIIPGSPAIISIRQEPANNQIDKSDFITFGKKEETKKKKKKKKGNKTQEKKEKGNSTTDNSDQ
The following applies: TMT ratio, Pcdha4 Protocadherin alpha-4. The method in brief:
(§1)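 Mouse MLO-Y4 cells were switched to serum-free FreeStyle medium for 4 h, chilled, then exposed to 10 nM His-tagged irisin (or adipsin as control) for 20 min. Cells were crosslinked with 1.5 mM DTSSP (30 min, ice), and bound proteins were pulled down on Ni-NTA and eluted with 250 mM imidazole. Eluates were separated by SDS-PAGE, trypsin-digested in gel, TMT 6-plex labelled and quantified by MS3-based LC-MS/MS on an Orbitrap Fusion Lumos.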

The target in assay [2] is T2, MLO-Y4 cell surface proteins (Mus musculus, UniProt Q8R1J9).
T2 construct: endogenous in cells; host or cells: MLO-Y4
T2 sequence (Q8R1J9 27-321): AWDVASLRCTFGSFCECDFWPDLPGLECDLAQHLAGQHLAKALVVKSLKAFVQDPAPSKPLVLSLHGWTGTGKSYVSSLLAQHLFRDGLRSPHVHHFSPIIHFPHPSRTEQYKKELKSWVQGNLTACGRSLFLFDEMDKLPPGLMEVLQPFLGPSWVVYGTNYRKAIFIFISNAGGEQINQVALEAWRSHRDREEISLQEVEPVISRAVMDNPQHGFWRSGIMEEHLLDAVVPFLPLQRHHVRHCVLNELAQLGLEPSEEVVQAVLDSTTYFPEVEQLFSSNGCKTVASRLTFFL
Conditions: co-precipitated protein Tor2a (TOR2A_MOUSE). Put shortly:
as §1

Assay [3] concerns the target T3, MLO-Y4 cell surface proteins (Mus musculus, UniProt Q8VCI5).
T3 construct: endogenous in cells; host or cells: MLO-Y4
T3 sequence (Q8VCI5 1-299): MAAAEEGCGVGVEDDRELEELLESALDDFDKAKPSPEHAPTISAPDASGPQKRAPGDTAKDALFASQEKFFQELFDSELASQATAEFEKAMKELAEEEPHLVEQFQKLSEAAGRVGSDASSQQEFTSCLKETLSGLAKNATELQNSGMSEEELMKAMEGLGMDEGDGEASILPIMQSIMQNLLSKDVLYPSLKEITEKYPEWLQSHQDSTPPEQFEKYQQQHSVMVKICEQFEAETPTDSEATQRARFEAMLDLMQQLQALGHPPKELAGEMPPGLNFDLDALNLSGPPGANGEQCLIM
The following applies: co-precipitated protein Pex19 (PEX19_MOUSE). Put shortly:
as §1

B1: irisin: secreted cleaved form of FNDC5; recombinant human/mouse irisin with C-terminal his tag produced in HEK293 cells (protein)
chain: DSPSAPVNVTVRHLKANSAVVSWDVLEDEVVIGFAISQQKKDVRMLRFIQEVNTTTRSCALWDLEEDTEYIVHVQAISIQGQSPASEPVLFKTPREAEKMASKNKDEVTMKE
modifications: left off: small tags and cut ends
notes: secreted cleaved form of FNDC5; recombinant human/mouse irisin with C-terminal his tag produced in HEK293 cells
With B1, the irsin/adipsin in assay [1] was 4.39. In assay [2], the TMT signal-to-noise ratio stood at 338.383 and the “irisin/adipsin TMT signal-to-noise ratio” value was 0.486. In assay [3], the TMT signal-to-noise ratio amounted to 23.3696 and the “irisin/adipsin TMT signal-to-noise ratio” value is given as 0.386.
